Data: publication PMC3512577 (Nature structural & molecular biology, 2011)

How the values were obtained:
[1] = biological target: recombinant C3d D122A (D1115A) (human) (UniProt P01024); test: SPR
[2] = biological target: plasma-derived C3d (UniProt P01024 996-1303); test: NMR titration
[3] = biological target: recombinant C3d E117A/D122A (E1110A/D1115A), with C17A (C1011A) (human, UniProt P01024 996-1306, E117A (E1110A) | D122A (D1115A)); test: SPR
[4] = biological target: recombinant C3d E117A (E1110A), with C17A (C1011A) (human, UniProt P01024 996-1306, E117A (E1110A)); test: SPR
[5] = biological target: recombinant C3d D122A (D1115A), with C17A (C1011A) (human, UniProt P01024 996-1306, D122A (D1115A)); test: SPR

| Kd [1] | binding result [2] | Kd [3] | fold decrease in affinity against wild-type C3d [3] | fold decrease in binding against C3d E160A and I164A [4] | fold decrease in binding against wild-type C3d [4] | fold decrease in binding against C3d E160A and I164A [5] | fold decrease in binding against wild-type C3d [5] | Molecule |
| --- | --- | --- | --- | --- | --- | --- | --- | --- |
| 46 µM |  |  |  |  |  |  |  | complement factor H CCP19–20, wild type (FH19–20) (from UniProt P08603 1108-1231) (domain or fragment) |
| 46 µM |  |  |  |  |  |  |  | FH19–20 L1189F (from UniProt P08603 1108-1231) (domain or fragment) |
|  | binds | ~30000 µM | ~1600 fold | 2 fold | 4 fold | 3 fold | 6 fold | FH19–20 (wild-type recombinant fragment of human complement factor H, CCP modules 19 and 20) (domain or fragment, UniProt P08603 1108-1231, looked up, 15N-labelled (NMR experiments only)) KCGPPPPIDNGDITSFPLSVYAPASSVEYQCQNLYQLEGNKRITCRNGQWSEPPKCLHPCVISREIMENYNIALRWTAKQKLYSRTGESVEFVCKRGYRLSSRSHTLRTTCWDGKLEYPTCAKR |
